The target of this experiment is LRRTM2-mVenus (full-length LRRTM2 mVenus-fusion protein) (UniProt O43300). Kind of experiment: saturation binding to cells.

For orientation: Kd means the constant that tells how readily two partners part at equilibrium.

Sequence of UniProt O43300 (O43300 34-516): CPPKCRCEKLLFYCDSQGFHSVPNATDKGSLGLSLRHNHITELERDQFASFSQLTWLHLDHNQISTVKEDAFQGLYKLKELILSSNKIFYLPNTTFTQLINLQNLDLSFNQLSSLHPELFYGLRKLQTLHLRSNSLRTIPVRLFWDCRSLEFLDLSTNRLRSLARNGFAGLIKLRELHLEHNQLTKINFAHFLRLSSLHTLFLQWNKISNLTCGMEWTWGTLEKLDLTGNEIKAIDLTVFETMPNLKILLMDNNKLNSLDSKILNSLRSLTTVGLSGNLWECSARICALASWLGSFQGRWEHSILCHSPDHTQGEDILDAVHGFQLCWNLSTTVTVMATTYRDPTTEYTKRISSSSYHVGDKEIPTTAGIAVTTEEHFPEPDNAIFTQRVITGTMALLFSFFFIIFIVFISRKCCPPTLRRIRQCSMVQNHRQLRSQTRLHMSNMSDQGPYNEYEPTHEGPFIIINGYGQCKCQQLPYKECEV

“IgNrx1β^SS4− (Ig-fusion protein of neurexin-1β lacking an insert in splice site #4) (Fc fusion)” yielded a Kd of 5.83 nM.

The values are drawn from publication PMC2829314.
